# “And” between values parts separate entries of the source, which are not always exact repeats. Equal values may be shown once.
# How the values were obtained:
# monomeric gp120 = test: FIG. 11; method not given
# [1] = target: linked dimer of the gp120 V1/V2 domain with truncated V1 and V2 variable loops
# [2] = target: Cap45 154-177 glycopeptide with Man5GlcNAc2 at N156 and Man5GlcNAc2 at N160; test: SPR, Fab injected over biotinylated glycopeptide on a streptavidin chip
# [3] = target: CAP45 154-177 glycopeptide with Man5GlcNAc2 at N160 and a complex glycan at N156; test: as above
# [4] = target: CAP45 154-177 glycopeptide with Man5GlcNAc2 at N160 only; test: as above
# [5] = target: ZM109 154-177 glycopeptide with Man5GlcNAc2 at N160 only; test: as above
# [6] = target: ZM109 154-177 glycopeptide with Man5GlcNAc2 at N160 and Man5GlcNAc2 at N173; test: as above
# [7] = target: ZM109 154-177 glycopeptide with Man5GlcNAc2 at N160 and a complex glycan at N173; test: as above
# Linked-Dimer Cap45 = test: SPR, sensorgram box labelled PG9 Fab
# [8] = target: gp120 of HIV-1 strain ZM109 (HIV-1); test: SPR, antigen amine-coupled, Fab injected, 1:1 Langmuir
# 1JO8-ZM109 V1V2 scaffold [9] = test: as above
# [10] = target: gp120 of HIV-1 strain AD244, full length (HIV-1); test: SPR, gp120 amine-coupled, Fab injected
# [11] = target: gp120 of HIV-1 strain 16055, full length (HIV-1); test: SPR, gp120 amine-coupled, Fab injected
# [12] = target: V3 loop-deleted gp120 of HIV-1 strain 16055 (HIV-1); test: SPR, gp120 amine-coupled, Fab injected
# [13] = target: V3 loop-deleted gp120 of HIV-1 strain AD244 (HIV-1); test: SPR, gp120 amine-coupled, Fab injected
# 1FD6-ZM109 V1V2 scaffold [14] = target: 1FD6-ZM109 V1V2 scaffold
# Linked-Dimer ZM109 = test: SPR
# Linked-Dimer A244 = test: SPR, sensorgram box labelled Flowcell 2: PG9 Fab
# 1FD6-ZM109 V1V2 scaffold [15] = test: SPR, scaffold immobilized, PG9 Fab injected
# 1JO8-ZM109 V1V2 scaffold [16] = test: SPR, scaffold immobilized, PG9 Fab injected
# [17] = target: V3 loop-deleted gp120 of HIV-1 strain AD244 (HIV-1); test: SPR, heterogeneous ligand model, component 2, 15.5%
# [18] = target: gp120 of HIV-1 strain 16055, full length (HIV-1); test: SPR, heterogeneous ligand model, component 2, 34.0%
# [19] = target: V3 loop-deleted gp120 of HIV-1 strain 16055 (HIV-1); test: SPR, heterogeneous ligand model, component 1, 46.9%
# [20] = target: gp120 of HIV-1 strain 16055, full length (HIV-1); test: SPR, heterogeneous ligand model, component 1, 66.0%
# [21] = target: V3 loop-deleted gp120 of HIV-1 strain AD244 (HIV-1); test: SPR, heterogeneous ligand model, component 1, 84.5%
# [22] = target: V3 loop-deleted gp120 of HIV-1 strain 16055 (HIV-1); test: SPR, heterogeneous ligand model, component 2, 53.1%
substance,measurement,setting,value
Hypersulfated PG9 Fab (co-expressed with TPST-1),fold increase of affinity by sulfation,monomeric gp120,10 fold
PG9 Fab,Kd,[1],1.7 µM
same,Kd,[2],45 µM
same,Kd,[3],5.7 µM
same,Kd,[4],50 µM
same,Kd,[5],97 µM
same,Kd,[6],97 µM
same,Kd,[7],5 µM
same,Kd,Linked-Dimer Cap45,0.59 µM
same,Kd,[8],0.0968 µM
same,koff,[8],0.00285 s⁻¹
same,kon,[8],29500 M⁻¹ s⁻¹
same,Kd,1JO8-ZM109 V1V2 scaffold [9],0.318 µM
same,koff,1JO8-ZM109 V1V2 scaffold [9],0.00253 s⁻¹
same,kon,1JO8-ZM109 V1V2 scaffold [9],7960 M⁻¹ s⁻¹
same,Kd,[10],0.044 µM
same,Kd,[11],0.049 µM
same,Kd,[12],0.0709 µM
same,Kd,[13],0.102 µM
same,Kd,1FD6-ZM109 V1V2 scaffold [14],3.98 µM and 5.67 µM
same,Kd,Linked-Dimer ZM109,1.61 µM
same,Kd,Linked-Dimer A244,1.8 µM
same,fold lower affinity than for wild-type ZM109 gp120,1FD6-ZM109 V1V2 scaffold [15],50 fold
same,fold lower affinity than for wild-type ZM109 gp120,1JO8-ZM109 V1V2 scaffold [16],3 fold
PG16 Fab,Kd,[17],0.0423 µM
same,Kd,[18],0.399 µM
same,Kd,[3],32 µM
same,Kd,[7],20 µM
same,Kd,[19],2.07 µM
same,Kd,[10],4.92 µM
same,Kd,[20],0.37 µM
same,Kd,[21],3.37 µM
same,Kd,[22],6.13 µM

# — patent US20140348865A1, “[…] ON AN HIV-1 V1V2 SITE-OF-VULNERABILITY” (The United States of America, as represented by the …, priority 2011, published 2014)
